Reference: patent US20190106487A1 (Sanofi, published 2019)
Where a chain is given by its changes, count along the chain named.

T1: mIL1RAcP-Fc (murine, UniProt Q61730 21-359)
T1 construct: also called P013_04; P013-04
T1 sequence (looked up): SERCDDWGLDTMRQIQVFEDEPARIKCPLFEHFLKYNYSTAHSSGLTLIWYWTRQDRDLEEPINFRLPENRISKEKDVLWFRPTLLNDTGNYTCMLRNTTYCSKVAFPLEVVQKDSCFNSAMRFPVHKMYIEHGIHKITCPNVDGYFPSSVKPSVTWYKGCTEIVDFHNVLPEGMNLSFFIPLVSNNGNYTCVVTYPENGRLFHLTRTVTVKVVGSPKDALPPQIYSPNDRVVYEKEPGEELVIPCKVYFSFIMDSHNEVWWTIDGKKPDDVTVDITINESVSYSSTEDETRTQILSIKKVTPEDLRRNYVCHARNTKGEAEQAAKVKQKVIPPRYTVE

T2: rhIL-1RAcP/Fc Chimera (human, UniProt Q9NPH3 21-359)
T2 construct: also called P013_03; P013-03
T2 sequence (looked up): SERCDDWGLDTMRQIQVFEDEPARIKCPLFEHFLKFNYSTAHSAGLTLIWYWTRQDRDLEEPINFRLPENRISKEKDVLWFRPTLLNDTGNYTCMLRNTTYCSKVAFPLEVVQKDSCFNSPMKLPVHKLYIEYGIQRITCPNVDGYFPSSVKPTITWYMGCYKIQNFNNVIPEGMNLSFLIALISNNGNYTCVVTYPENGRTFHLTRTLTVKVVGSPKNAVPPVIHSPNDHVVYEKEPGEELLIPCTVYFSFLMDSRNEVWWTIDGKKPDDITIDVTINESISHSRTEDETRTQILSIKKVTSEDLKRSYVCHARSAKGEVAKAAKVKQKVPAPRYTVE

T3: human IL-1RAcP on 293T/17-FR cells (human, UniProt Q9NPH3 21-570)
T3 sequence (looked up): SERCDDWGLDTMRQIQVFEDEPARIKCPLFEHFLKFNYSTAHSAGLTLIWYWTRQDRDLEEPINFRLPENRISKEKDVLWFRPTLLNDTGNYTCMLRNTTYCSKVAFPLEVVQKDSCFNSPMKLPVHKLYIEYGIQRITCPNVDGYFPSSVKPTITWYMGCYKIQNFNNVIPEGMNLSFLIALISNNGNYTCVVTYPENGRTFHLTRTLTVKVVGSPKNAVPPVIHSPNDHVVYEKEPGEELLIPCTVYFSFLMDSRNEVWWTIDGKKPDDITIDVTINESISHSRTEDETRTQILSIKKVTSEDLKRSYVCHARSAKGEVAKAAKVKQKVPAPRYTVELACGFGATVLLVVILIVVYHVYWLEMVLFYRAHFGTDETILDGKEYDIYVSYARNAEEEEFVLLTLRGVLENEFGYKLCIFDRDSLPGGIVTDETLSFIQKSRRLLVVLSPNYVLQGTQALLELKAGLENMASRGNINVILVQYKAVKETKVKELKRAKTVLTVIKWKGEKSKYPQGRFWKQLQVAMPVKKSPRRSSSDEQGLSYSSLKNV

B1: P013.S.02.B.C01 (antibody, V domains shown)
VH: QSVEESGGRLVTPGGSLTLTCTVSGFSLSVYAMGWFRQAPGKGLEWIGDIYTGSGSTWYASWAKGRFTISKTSTTVDLKITSPTTEDTATYFCAREIDAGYVGYGFNLWGQGTLVTVSS
VL: AQALTQTPSSVSAAVGGTVTINCQSSQSVYSDYLVWYQQKPGQPPKLLIYQASKLASGVPSRFKGSGSGTQFTLTISGVQSDDAATYYCQATYSSTGWYRAFGGGTEVVVK
notes: rabbit monoclonal antibody; also called P013.A.00109.C12
B2: P013.S.01.B.D04 (antibody, V domains shown)
VH: QEQLKESGGRLVTPGGSLTLTCTVSGFSLSIYAMGWFRQAPGKGLEWIGDIYPGSDSTWYASWAKGRFTISKTSTTVDLKITSPTTEDTATYFCAREIDAGYVGYGFDLWGQGTLVTVSS
VL: B1 VL with V35A, P44S, Q51K, Q71E, S94Y, T96V
notes: rabbit monoclonal antibody; also called P013.A.00088.B09
B3: P013.S.02.B.D02 (antibody, V domains shown)
VH: QSLEESGGDLVKPGASLKLSCTASGVSFSSAYWMCWVRQAPGKGLEWIACIYAGSSGSTYYASWAKGRFTISKTSSTTVTLQMTSLTAADTATYFCARHAAWFELDLWGPGTLVTVSS
VL: ALVMTQTPSPVSAAVGGTVTINCQASQNIASAYLSWYQQKPGQPPKLLIYAASTLTDGVPSRFKGSGSVTEFTLTISGVQSDDAATYYCAGYKSYTDDEFAFGGGTEVVVK
notes: rabbit monoclonal antibody; also called P013.A.00086.F05
B4: P013.S.01.B.E05 (antibody, V domains shown)
VH: QSLEESGGDLVKPGASLTLTCTASGISFSSSDFMCWVRQAPGKGLEWIACIYAGSSVSIYYATWAKGRFTISKASSTTVTLQMASLTVADTATYFCARSTGSVGRGFNLWGQGTLVTVSS
VL: AQVLTQTPSPVSAAVGGTVTISCQASQSVYNSNHLSWYQQKPGQPPRLLIYSASTLASGVPSRFKGSGSGTQFTLTISGVQSDDAATYYCQGEFSCVSADCIAFGGGTEVVVK
notes: rabbit monoclonal antibody; also called P013.A.00086.F02
B5: P013.S.02.B.D01 (antibody, V domains shown)
VH: LEQSGGGAEGGLVKPGGSLELCCKASGFSLSSNYWMCWVRQAPGKGLEWIGCIYAGSSDSTYYASWVNGRFTLSRDIDQSTGCLQLNSLTAADTAMYYCASPGYGGYGYYGLWGQGTLVTVSS
VL: ALVMTQTPSPVSAAVGGTVTINCQASEDIYSNLAWFQQKPGQPPKLLIYDASTLASGVPSRFSGSGSGTEFTLTISGLQSDDAATYYCLGVYTYISPDGTDNAFGGGTEVVVK
notes: rabbit monoclonal antibody; also called P013.A.00141.G02
B6: P013.S.01.B.B04 (antibody, V domains shown)
VH: QSVEESGGRLVTPGTPLTLTCTVSGIDLDNYAMGWVRQAPGKGLEYIGVISSDGFFYDASWAKGRFTISKASSTTVDLKMTGLTPEDTATYFCARDRGTSTGSLDLWGQGTLVTVSS
VL: ALVMTQTPASVSEPVGGTVTIKCQASENIGNGLAWYQQKPGQPPNLLIYGASTLASGVPSRFSGSGYGTEFTLTVSDLESGDAATYYCQCTYWNPDYIGGAFGGGTEVVVT
notes: rabbit monoclonal antibody; also called P013.A.00086.E02
B7: P013.S.02.B.C03 (antibody, V domains shown)
VH: QSLEESGGRLVTPGTPLTLTCTVSGIDLSSYAMGWVRQAPGKGLEYIGIISNSGTTYYASWAKGRFTISKTSSTTVDLKMTSPTTEDTATYFCARDRYANTHGIFSLWGQGTLVTVSS
VL: DIVMTQTPASVSAPVGGTVTINCQASESIYSDLAWYQQKPGQPPKLLISFVATLESGVPSRFKGSGSGTEFTLTISDLESADAATYYCQCTYGGSGSGNGAAFGGGTEVVVK
notes: rabbit monoclonal antibody; also called P013.A.00085.G07
B8: P013.S.01.B.E03 (antibody, V domains shown)
VH: QSLEESGGRLVTPGTPLTLTCTASGFSITNYHISWVRQAPGKGLEWIGYIYAGRDFTYYANWAEGRFTISKTSTTVDLQVTVPTTEDTATYFCARDGGSPNWTLDLWGQGTLVTVSS
VL: DVVMTQTPASVSEPVGGTVTINCQASESISDYLSWYQQKPGQPPKLLIYRASTLESGVSSRFKGSGSGTQFTLTISDLESADAATYYCQSNYYDSRGNAFGGGTEVVVK
notes: rabbit monoclonal antibody; also called P013.A.00015.E03
B9: P013.S.02.B.E01 (antibody, V domains shown)
VH: QSLEESGGRLVTPGTPLTLTCTVSGFSLSIYGMGWVRQAPGEGLEWIGSISSGGSTYYATWAKGRFTISKTSSTTLDLKITSPTTEDTATYFCVRSDGYTNGDYDTYFNLWGQGTLVTVS
VL: DIVMTQTPASVSEPVGGTVTIRCQASQSISSWLSWYQQKPGQPPKLLIYQASALASGVSSRFIGSGYGTEFTLTISGVQSEDAATYYCQCTYGIGSNSDYGVAFGGGTEVVVK
notes: rabbit monoclonal antibody; also called P013.A.00013.G07
B10: P013.S.02.B.E02 (antibody, V domains shown)
VH: QSVEESGGRLVTPGTPLTLTCTVSGFSLNVYNMGWVRQAPGKGLEYIGIISSSGTTYYASWAKGRFTISKTSSTTVDLKITSLTTEDTATYFCARADGYTEGDYATYFNLWGQGTLVTVSS
VL: B9 VL with R22K, S30T, S31T, S34A, N97G, D99S
notes: rabbit monoclonal antibody; also called P013.A.00087.E09

Molecular target: T1, mIL1RAcP-Fc
Assay: ELISA, primary supernatant, coated mu-IL-1RAcP-Fc

| Binder | mu-IL1RaP ELISA (OD) |
| --- | --- |
| B1 | -0.1 |
| B2 | 0 |
| B3 | 0 |
| B4 | -0.1 |
| B5 | -0.1 |
| B6 | 0.5 |
| B7 | 0.7 |
| B8 | 0.1 |
| B9 | -0.1 |
| B10 | 0 |

Molecular target: T2, rhIL-1RAcP/Fc Chimera
Assay: ELISA, recombinant purified mAb

| Binder | EC50 [µg/mL] |
| --- | --- |
| B1 | 0.256 |
| B2 | 0.247 |
| B3 | 0.541 |
| B4 | 0.966 |
| B5 | 0.555 |
| B6 | 0.042 |
| B7 | 0.847 |
| B8 | 0.05 |
| B9 | 0.137 |
| B10 | 0.59 |

Molecular target: T3, human IL-1RAcP on 293T/17-FR cells
Assay: cell-based or functional assay

| Binder | functional reporter gene assay (% inhibition), 0.04 µg/mL mAb [%] | functional reporter gene assay (% inhibition), 0.2 µg/mL mAb [%] | functional reporter gene assay (% inhibition), 1 µg/mL mAb [%] | functional reporter gene assay (% inhibition), 5 µg/mL mAb [%] | primary supernatant functional assay (% inh.), NF-kB luciferase reporter [%] |
| --- | --- | --- | --- | --- | --- |
| B1 | 19 | 28 | 73 | 96 | 88 |
| B2 | 27 | 67 | 87 | 89 | 95 |
| B3 | 1 | 22 | 58 | 79 | 85 |
| B4 | 26 | 61 | 81 | 93 | 98 |
| B5 | 9 | 22 | 54 | 79 | 85 |
| B6 | 42 | 83 | 93 | 99 | 97 |
| B7 | 21 | 27 | 31 | 30 | 29 |
| B8 | 54 | 63 | 60 | 68 | 73 |
| B9 | -6 | 14 | 56 | 86 | 79 |
| B10 | 0 | 14 | 21 | 68 | 85 |

Molecular target: T2, rhIL-1RAcP/Fc Chimera
Assay: ELISA, primary supernatant, coated hu-IL-1RAcP-Fc
Summary of the method: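 Plates coated with 0.5 μg/mL Fc-tagged human IL-1RAcP; rabbit B-cell supernatant antibodies detected by peroxidase anti-rabbit IgG Fab2 and TMB, absorbance 450/620 nm. Parallel IL12Rβ1-Fc coating served as counterscreen to exclude tag binders.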

| Binder | hu-IL1RaP ELISA (OD) |
| --- | --- |
| B1 | 3.5 |
| B2 | 3.9 |
| B3 | 3.3 |
| B4 | 3.6 |
| B5 | 3.4 |
| B6 | 3.5 |
| B7 | 3.6 |
| B8 | 3.4 |
| B9 | 3.7 |
| B10 | 3.3 |
